{"source": "patent US20080148430", "key": {"[1]": {"biological_target": "T1, GST fusion containing the first 46 amino acids of Phos32", "T1 chain": "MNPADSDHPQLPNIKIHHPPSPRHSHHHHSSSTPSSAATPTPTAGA"}, "[2]": {"biological_target": "T2, AtPhos34 (At4g27320)", "T2 chain": "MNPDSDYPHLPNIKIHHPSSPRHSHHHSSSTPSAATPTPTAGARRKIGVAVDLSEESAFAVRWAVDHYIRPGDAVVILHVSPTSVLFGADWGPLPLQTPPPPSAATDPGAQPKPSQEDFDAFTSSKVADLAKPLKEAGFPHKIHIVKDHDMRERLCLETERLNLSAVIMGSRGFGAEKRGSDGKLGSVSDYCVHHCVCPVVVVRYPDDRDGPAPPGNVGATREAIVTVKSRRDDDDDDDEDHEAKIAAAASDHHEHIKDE"}, "[3]": {"biological_target": "T3, Phos32 with serine S21 mutated to alanine", "T3 chain": "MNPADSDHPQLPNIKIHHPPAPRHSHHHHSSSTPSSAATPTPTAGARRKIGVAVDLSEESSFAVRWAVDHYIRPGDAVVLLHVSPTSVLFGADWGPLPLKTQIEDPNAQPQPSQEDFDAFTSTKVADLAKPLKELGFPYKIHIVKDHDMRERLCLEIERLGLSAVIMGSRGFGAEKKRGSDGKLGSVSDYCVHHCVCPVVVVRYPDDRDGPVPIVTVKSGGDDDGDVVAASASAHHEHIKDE"}, "[4]": {"biological_target": "T4, Phos32 with serine S21 mutated to aspartic acid", "T4 chain": "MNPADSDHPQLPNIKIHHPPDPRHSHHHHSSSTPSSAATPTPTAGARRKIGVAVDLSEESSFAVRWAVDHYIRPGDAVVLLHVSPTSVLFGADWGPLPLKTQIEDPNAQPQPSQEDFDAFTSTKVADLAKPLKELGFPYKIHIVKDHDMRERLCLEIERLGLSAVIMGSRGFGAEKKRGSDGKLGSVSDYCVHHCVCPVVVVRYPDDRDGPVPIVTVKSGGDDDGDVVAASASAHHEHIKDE"}, "[5]": {"biological_target": "T5, AtPhos32 (At5g54430)", "T5 chain": "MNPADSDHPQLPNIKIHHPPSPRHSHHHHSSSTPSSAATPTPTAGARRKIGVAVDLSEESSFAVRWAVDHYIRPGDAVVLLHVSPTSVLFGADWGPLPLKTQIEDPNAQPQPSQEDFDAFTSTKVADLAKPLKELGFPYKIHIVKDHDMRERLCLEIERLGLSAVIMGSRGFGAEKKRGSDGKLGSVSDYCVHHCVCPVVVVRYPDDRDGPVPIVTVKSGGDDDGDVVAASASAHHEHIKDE"}, "[6]": {"biological_target": "T6, Myelin Basic Protein (MBP) Bovine P02687", "T6 chain": "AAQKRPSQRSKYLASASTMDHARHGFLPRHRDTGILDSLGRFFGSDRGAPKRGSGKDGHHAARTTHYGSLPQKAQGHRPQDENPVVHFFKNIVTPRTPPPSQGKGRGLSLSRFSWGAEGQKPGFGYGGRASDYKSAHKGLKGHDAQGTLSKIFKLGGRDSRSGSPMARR"}}}
{"protein": "AtMPK6 (protein) MDGGSGQPAADTEMTEAPGGFPAAAPSPQMPGIENIPATLSHGGRFIQYNIFGNIFEVTAKYKPPIMPIGKGAYGIVCSAMNSETNESVAIKKIANAFDNKIDAKRTLREIKLLRHMDHENIVAIRDIIPPPLRNAFNDVYIAYELMDTDLHQIIRSNQALSEEHCQYFLYQILRGLKYIHSANVLHRDLKPSNLLLNANCDLKICDFGLARVTSESDFMTEYVVTRWYRAPELLLNSSDYTAAIDVWSVGCIFMELMDRKPLFPGRDHVHQLRLLMELIGTPSEEELEFLNENAKRYIRQLPPYPRQSITDKFPTVHPLAIDLIEKMLTFDPRRRITVLDALAHPYLNSLHDISDEPECTIPFNFDFENHALSEEQMKELIYREALAFNPEYQQ", "values": [{"measurement": "in vitro kinase assay", "setting": "[1]", "value": "the first 46 amino acids of Phos32 protein are sufficient for MAP kinase recognition and phosphorylation"}, {"measurement": "in-solution kinase assays with 32P-gammaATP", "setting": "[2]", "value": "we found that these proteins are excellent MAP kinase substrates"}, {"measurement": "in vitro kinase assay", "setting": "[3]", "value": "mutation of this residue to alanine or aspartic acid abolishes phosphorylation by MAPKs"}, {"measurement": "in vitro kinase assay", "setting": "[4]", "value": "mutation of this residue to alanine or aspartic acid abolishes phosphorylation by MAPKs"}, {"measurement": "in-solution kinase assays with 32P-gammaATP", "setting": "[5]", "value": "we found that these proteins are excellent MAP kinase substrates"}]}
{"protein": "AtMPK3 (protein) MNTGGGQYTDFPAVETHGGQFISYDIFGSLFEITSKYRPPIIPIGRGAYGIVCSVLDTETNELVAMKKIANAFDNHMDAKRTLREIKLLRHLDHENIIAIRDVVPPPLRRQFSDVYISTELMDTDLHQIIRSNQSLSEEHCQYFLYQLLRGLKYIHSANIIHRDLKPSNLLLNANCDLKICDFGLARPTSENDFMTEYVVTRWYRAPELLLNSSDYTAAIDVWSVGCIFMELMNRKPLFPGKDHVHQMRLLTELLGTPTESDLGFTHNEDAKRYIRQLPNFPRQPLAKLFSHVNPMAIDLVDRMLTFDPNRRITVEQALNHQYLAKLHDPNDEPICQKPFSFEFEQQPLDEEQIKEMIYQEAIALNPTYG", "values": [{"measurement": "in vitro kinase assay", "setting": "[1]", "value": "the first 46 amino acids of Phos32 protein are sufficient for MAP kinase recognition and phosphorylation"}, {"measurement": "in-solution kinase assays with 32P-gammaATP", "setting": "[2]", "value": "we found that these proteins are excellent MAP kinase substrates"}, {"measurement": "level of phosphorylation in an in vitro kinase assay", "setting": "[6]", "value": "we used 2 µg of MBP in an in vitro kinase assay with AtMPK3 and compared the level of phosphorylation"}, {"measurement": "in vitro kinase assay", "setting": "[3]", "value": "mutation of this residue to alanine or aspartic acid abolishes phosphorylation by MAPKs"}, {"measurement": "in vitro kinase assay", "setting": "[4]", "value": "mutation of this residue to alanine or aspartic acid abolishes phosphorylation by MAPKs"}, {"measurement": "in-solution kinase assays with 32P-gammaATP", "setting": "[5]", "value": "we found that these proteins are excellent MAP kinase substrates"}, {"measurement": "level of phosphorylation in an in vitro kinase assay", "setting": "[5]", "value": "Phos32 is at least as good if not a better substrate than MBP for this MAP Kinase"}]}
